The results in this text go back to the supplement of paper PMC10126150.

± gives the standard deviation of the averaged measurements.
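Also: ATP exposure 15 min at 22 °C before imaging.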

For this data set, the system named is ATP. The data set can be described thus: switch fluorescence ratio, 500 uM ATP over buffer (Cy3 cluster intensity, sum of 5 cycles each) (fold (ratio)); higher = stronger signal-on switching upon ATP binding; sequences stand for … in TCGTCGGCAGCGTCAGATGTGTATAAGAGACAGTTTTTTTTTTTTTTTTTTTTTTTTT…TC. The note with it: aptamer strand: ATP DNA aptamer (quencher-CACCTGGGGGAGTATTGCGGAGGAAGG + anchor), 100 nM annealed; ATP concentration: 500 uM. In short, it runs like this:
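After annealing to 100 nM quencher-labelled ATP aptamer, Cy3-labelled switching-strand clusters on a modified Illumina MiSeq flow-cell were imaged in selection buffer. A second image followed after 15 min with 500 uM ATP at 22 °C, and five such buffer/ATP cycles were done, each separated by NaOH stripping and re-annealing. The fluorescence ratio, averaged per switch-domain sequence, is summed target-cycle over summed buffer-cycle Cy3 intensity per cluster, with clusters outside 100-1000 RFU excluded.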
For CTTAGATATT, the switch fluorescence ratio was 1.01 ± 0.045. For TTTGAATTAC the value was 1.17 ± 0.062; for CCACGTGAGG, 1.03 ± 0.012. To TTTAACGGGA belongs 1.15 ± 0.17; to CGGATATTGT, 0.995 ± 0.028; to AGGGGAGTAT, 1.45 ± 0.66.

TTTCGGATCA: the switch fluorescence ratio worked out at 0.9334 ± 0.0044. For GAACTCGGTC the value was 0.994 ± 0.01; for AACAGGGGAG, 1.03 ± 0.03.

As to GGTCGCTTTT, the switch fluorescence ratio is 0.9949 ± 0.0043.

With TCGTGTGGGG, the switch fluorescence ratio is 1.02 ± 0.048. For GGATTACAGT the value was 0.997 ± 0.014; for TTTTTAATGG, 1.01 ± 0.034. To TTTGAGGTCC belongs 1 ± 0.07; to TTTCGGAACC, 1.2 ± 0.22; to AAATGTTTTC, 0.979 ± 0.015. On to GGGCAATTGC, for which the switch fluorescence ratio is 1.01 ± 0.059. CTATCGGTGA: the switch fluorescence ratio came to 0.9767 ± 0.0019.

For TAGGTCGGGT, the switch fluorescence ratio amounted to 0.984 ± 0.035. Turning to TAGAATTTTT, the switch fluorescence ratio is 0.998 ± 0.017. To TTGCAAGTCA belongs 1.05 ± 0.018. For ACCATACTGC, the switch fluorescence ratio was 1.23 ± 0.12. In the case of CATATGAGGG, the switch fluorescence ratio stood at 0.991 ± 0.07. To CGAAGGCTCG belongs 0.99 ± 0.04; to ATGTGGAAGT, 0.97 ± 0.043; to GGCGCAGGAG, 1.092 ± 0.0082.

For the sequence TCGGGCCCGG, the switch fluorescence ratio was found to be 1 ± 0.078. Turning to AGATGACTTT, the switch fluorescence ratio is 0.98 ± 0.034.

Turning to ACGGGGTGGA, the switch fluorescence ratio is 1 ± 0.037. For GAATTTGTCC the value was 0.988 ± 0.013. On to TTAAGATGGG, for which the switch fluorescence ratio stood at 0.996 ± 0.025. To AGCTGTGAC belongs 1.07 ± 0.04; to TTGGAGTTGT, 1.02 ± 0.098. For the sequence AAGAGATACG, the switch fluorescence ratio is 1.04 ± 0.059. To TCAGCGGGGG belongs 1.11 ± 0.16; to ACAGGTATTA, 0.996 ± 0.017; to ATTAATTGGG, 1.01 ± 0.036. As to GGGGGCCTTT, the switch fluorescence ratio is 0.995 ± 0.02. To GGGTCCAAAT belongs 1.02 ± 0.04. As for TGCCGAGGTG, the switch fluorescence ratio was 1.38 ± 0.12.

Turning to CATACGGTTT, the switch fluorescence ratio was 1.05 ± 0.024. For CGGAGGAGGG the value was 1.21 ± 0.3; for TTAGGACGAT, 0.997 ± 0.051. To CATCATGTGT belongs 0.9714 ± 0.0043; to ATTTGGGTTA, 1.01 ± 0.019; to GGCAATTTTT, 0.992 ± 0.049. TTAGTGCGGA: the switch fluorescence ratio is 0.994 ± 0.012. To AAGTTGTTGT belongs 1.007 ± 0.0025; to GGTTCTTTTT, 1.02 ± 0.011. To CGTCGCAGTG belongs 1.03 ± 0.052; to TCCAGTCAAA, 1.01 ± 0.075; to ATTTGTTTTG, 0.997 ± 0.053.

Turning to TGGCCAAATT, the switch fluorescence ratio came to 1.03 ± 0.019.

With CCTGGTTAGG, the switch fluorescence ratio was 0.983 ± 0.013. To GGGTTAGTTG belongs 0.995 ± 0.046; to GGACATGTAG, 0.965 ± 0.024. For AAATCGGGAA the value was 1.34 ± 0.44. For AAGGCGTTTT the value was 1.01 ± 0.018. With ATCGTTCGTG, the switch fluorescence ratio came out at 0.99714 ± 0.00096. For CGGAATAATT the value was 1.04 ± 0.025; for TAAGAGGGTG, 1.11 ± 0.016; for CGGTATACTG, 1.04 ± 0.049. On to TTGGGTTTGT, for which the switch fluorescence ratio stood at 0.997 ± 0.017. With TTTATCTGAA, the switch fluorescence ratio worked out at 0.9783 ± 0.0017.

Regarding CATGCGTAAA, the switch fluorescence ratio was found to be 1.238 ± 0.0069. For GAAAGTGTTG the value was 0.9722 ± 0.0058; for AGTTTGGGCC, 1.017 ± 0.0059. To TAAAACGCCC belongs 1.15 ± 0.04; to GATAGCCAAT, 1.02 ± 0.016.

Consider GTTGTGCGGG, for which the switch fluorescence ratio is 1.02 ± 0.0089. For GGTGATGATC the value was 1.038 ± 0.0044; for GCTTCAGTAG, 1.11 ± 0.02.

For the sequence ACTACTTTCG, the switch fluorescence ratio amounted to 1.03 ± 0.034. Consider CAGGAGGGAG, for which the switch fluorescence ratio stood at 1.01 ± 0.011. With ATAGTAGTCG, the switch fluorescence ratio was 1.03 ± 0.1. For AAACGGCGGC the value was 1.05 ± 0.041. For GATACTGTTG the value was 0.988 ± 0.027; for ATAGAAGTTA, 0.985 ± 0.031; for AATGCGTATG, 1.02 ± 0.036. For TCCCATTTTT the value was 1.01 ± 0.038; for CAAGCATAGG, 1.07 ± 0.072. For AGTCGCGCGC, the switch fluorescence ratio was 0.989 ± 0.011. To GCTGTTCCTC belongs 1.07 ± 0.011. To TTTGCCTGAC belongs 1.57 ± 0.37; to CTGTAGATTG, 0.983 ± 0.019. As to ACTTAGGCGG, the switch fluorescence ratio worked out at 1 ± 0.011. TAGGGTCTCT: the switch fluorescence ratio stood at 0.989 ± 0.012. To AACCCCCGTT belongs 1.07 ± 0.09; to ACTTTTAGTT, 1.05 ± 0.018. To CCATACGTAG belongs 1.035 ± 0.0066; to GCTACACGAA, 1.04 ± 0.027; to CGCGGGAAGG, 1.02 ± 0.036. To TTTTTTAGCG belongs 0.99 ± 0.029; to GATGTTAAGC, 0.9867 ± 0.0095; to TGTAGGGGCA, 0.99 ± 0.014. Take AGGGAGTACA: the switch fluorescence ratio amounted to 1.01 ± 0.013.

For TCTTTTGGGC, the switch fluorescence ratio was determined as 1.02 ± 0.076. For the sequence GGTGTCGTCA, the switch fluorescence ratio was found to be 1.024 ± 0.0081. In the case of GTGTCTACAT, the switch fluorescence ratio was 1.02 ± 0.014. On to GTGGTAAACG, for which the switch fluorescence ratio was found to be 1 ± 0.029. To GATTCTTATG belongs 1.03 ± 0.036; to TTGGTTGAGA, 0.9939 ± 0.0071.

GGGGCTTGGA: the switch fluorescence ratio was found to be 1 ± 0.017. With CGGATGTGGT, the switch fluorescence ratio was 0.973 ± 0.016. For the sequence TTTATTTGTA, the switch fluorescence ratio is 0.99 ± 0.035.

Consider GACGGGGGGT, for which the switch fluorescence ratio stood at 1 ± 0.041. To GCGGCTGATG belongs 1.02 ± 0.012; to GGGTAATTTG, 1 ± 0.03.

In the case of GGGCCCGGGA, the switch fluorescence ratio was found to be 0.986 ± 0.018. For AAATTGAGGA, the switch fluorescence ratio was 1.017 ± 0.0096.

As to CAGTTGCTCA, the switch fluorescence ratio worked out at 1.012 ± 0.0097.

For the sequence AATCAGGGTG, the switch fluorescence ratio amounted to 1.16 ± 0.01. GAAGAATCTG: the switch fluorescence ratio was 1.03 ± 0.016. For GGCCTGGGAG the value was 0.992 ± 0.011; for TTGAATCGGG, 0.944 ± 0.035.

As to TTTAGCACGA, the switch fluorescence ratio was found to be 1 ± 0.024.

In the case of AGCATGGGAG, the switch fluorescence ratio was 0.991 ± 0.034. For CGTGCAAATT the value was 0.985 ± 0.026; for CTGGTGGTTT, 1.01 ± 0.0047; for TCGGGTGGGG, 1.01 ± 0.014.
